Drawing on the Immune Epitope Database (IEDB), this text covers Kd for eleven sequences.

pKd: −log10 of the molar value. Some results are limits rather than exact numbers.

One assay deals with HLA-B*18:01. Briefly: IEDB peptide-MHC binding, purified MHC/competitive/radioactivity; filed as Kd, often an IC50 or EC50 that approximates it; ≥ and ≤ were set here for values at or beyond the usual limits of such assays.
In the next assay the target is HLA-B*44:03. The description is as above.
Assay [1] deals with HLA-B*40:01. The assay is described as above.
A further assay addresses HLA-B*40:02. The assay is described as above.
Another assay addresses HLA-B*44:02. The assay is described as above.
The target in another assay is HLA-B*45:01. Described as above.
For a further assay, the target named is HLA-B*08:01. Briefly: IEDB peptide-MHC binding, purified MHC/direct/fluorescence; filed as Kd, often an IC50 or EC50 that approximates it; ≥ and ≤ were set here for values at or beyond the usual limits of such assays.
The next assay concerns the target HLA-B*07:02. Described as above.
In a further assay the target is HLA-A*69:01. The description is as above.
The target of another assay is HLA-A*11:01. Described as above.
Another assay has as its target HLA-A*02:01. The description is as above.
In assay [2] the target is HLA-A*26:01. The description is as above.
Assay [3] concerns the target HLA-B*40:01. Described as above.
A further assay deals with HLA-A*03:01. The assay is described as above.
A further assay concerns the target HLA-B*58:01. The assay is described as above. The conditions noted are these: source organism: Shewanella violacea.
A further assay has as its target HLA-A*31:01. The assay is described as above.
The next assay deals with HLA-A*01:01. The description is as above.
In a further assay the target is HLA-B*27:05. The assay is described as above.
The next assay has as its target HLA-B*39:01. Briefly: IEDB peptide-MHC binding, purified MHC/competitive/fluorescence; filed as Kd, often an IC50 or EC50 that approximates it; ≥ and ≤ were set here for values at or beyond the usual limits of such assays. The conditions noted are these: source organism: Rhizobium wenxiniae.
The next assay addresses HLA-B*15:01. In words: IEDB peptide-MHC binding, purified MHC/direct/fluorescence; filed as Kd, often an IC50 or EC50 that approximates it; ≥ and ≤ were set here for values at or beyond the usual limits of such assays. The conditions noted are these: source organism: Rhizobium wenxiniae.
Assay [4] concerns the target HLA-A*26:01. Briefly: IEDB peptide-MHC binding, purified MHC/competitive/fluorescence; filed as Kd, often an IC50 or EC50 that approximates it; ≥ and ≤ were set here for values at or beyond the usual limits of such assays. The conditions noted are these: source organism: Bacillus anthracis str. A2012.
The mark [5] stands for this setting: source organism: Mammarenavirus machupoense.
[6] abbreviates: source organism: Mammarenavirus tacaribeense.
The mark [7] stands for this setting: source organism: Haemophilus influenzae.
[8] abbreviates: source organism: Shewanella violacea.
The mark [9] stands for this setting: source organism: Mammarenavirus guanaritoense.
Setting [10] is: source organism: Rhizobium wenxiniae.
The mark [11] stands for this setting: source organism: SARS coronavirus Tor2.
The mark [12] stands for this setting: source organism: Mammarenavirus brazilense.

What is called pKd is the negative decadic logarithm of the Kd, by convention in mol/L. As to EELSLMYETL, the pKd with HLA-B*18:01 (setting [5]) is 5.61; with HLA-B*44:03 (setting [5]), 5.88; in the assay with HLA-B*40:01 [1] (setting [5]), 4.98; with HLA-B*40:02 (setting [5]), 6.96; with HLA-B*44:02 (setting [5]), 5.81; with HLA-B*45:01 (setting [5]), 6.02.
For the sequence EEVPTLIKTL, the pKd is no more than 4.15 with HLA-B*18:01 (setting [6]); 5.48 in the assay with HLA-B*44:03 (setting [6]); 5.12 in the assay with HLA-B*40:01 [1] (setting [6]); 5.20 with HLA-B*40:02 (setting [6]); 5.07 with HLA-B*44:02 (setting [6]); 5.52 in the assay with HLA-B*45:01 (setting [6]).
As for ETKGKRRLL, the pKd in the assay with HLA-B*08:01 (setting [7]) is 5.13; in the assay with HLA-B*07:02 (setting [8]) it was no more than 4.70; with HLA-A*69:01 (setting [8]), no more than 4.70; in the assay with HLA-A*11:01 (setting [8]), no more than 4.70; with HLA-A*02:01 (setting [8]), no more than 4.70; with HLA-A*26:01 [2] (setting [7]), 5.15. For the same sequence, the pKd with HLA-B*40:01 [3] (setting [8]), with HLA-A*03:01 (setting [8]), in the assay with HLA-B*58:01, with HLA-A*31:01 (setting [8]), with HLA-A*01:01 (setting [8]) and with HLA-B*27:05 (setting [8]) was no more than 4.70 throughout.
As for FEEALNVALA, the pKd was 7.00 with HLA-B*18:01 (setting [9]); no more than 4.15 with HLA-B*44:03 (setting [9]); 5.25 in the assay with HLA-B*40:01 [1] (setting [9]); 6.55 with HLA-B*40:02 (setting [9]); no more than 4.15 in the assay with HLA-B*44:02 (setting [9]); 7.05 in the assay with HLA-B*45:01 (setting [9]).
Turning to FHLRSRFAF, the pKd is no less than 9.00 with HLA-B*39:01; 6.95 with HLA-B*08:01 (setting [10]); no more than 4.70 with HLA-B*07:02 (setting [10]); no more than 4.70 with HLA-A*69:01 (setting [10]); no more than 4.70 in the assay with HLA-B*15:01; no more than 4.70 with HLA-A*11:01 (setting [10]). The pKd with HLA-A*02:01 (setting [10]), in the assay with HLA-A*26:01 [2] (setting [10]), with HLA-B*40:01 [3] (setting [10]), with HLA-A*03:01 (setting [10]), with HLA-A*31:01 (setting [10]) and in the assay with HLA-A*01:01 (setting [10]) was no more than 4.70 each time. Further, the pKd in the assay with HLA-B*27:05 (setting [10]) was no more than 4.70.
As to GECPKFVFPL, the pKd is no more than 4.15 in the assay with HLA-B*18:01 (setting [11]); 6.17 with HLA-B*44:03 (setting [11]); 8.56 in the assay with HLA-B*40:01 [1] (setting [11]); 8.89 with HLA-B*40:02 (setting [11]); 6.02 with HLA-B*44:02 (setting [11]); 5.44 with HLA-B*45:01 (setting [11]).
In the case of GEILLLEWL, the pKd in the assay with HLA-B*18:01 (setting [11]) is 5.30; with HLA-B*44:03 (setting [11]) it was 8.82; with HLA-B*40:01 [1] (setting [11]), 9.44; in the assay with HLA-B*40:02 (setting [11]), 4.71; in the assay with HLA-B*44:02 (setting [11]), 8.03; with HLA-B*45:01 (setting [11]), 6.07.
Take IDPLIVSTS: the pKd was no more than 4.11 with HLA-B*18:01 (setting [12]); 4.74 with HLA-B*44:03 (setting [12]); no more than 4.32 with HLA-B*40:01 [1] (setting [12]); 5.34 with HLA-B*40:02 (setting [12]); no more than 4.11 with HLA-B*44:02 (setting [12]); 4.72 in the assay with HLA-B*45:01 (setting [12]).
As for IEELFYSYAT, the pKd with HLA-B*18:01 (setting [11]) is 6.10; in the assay with HLA-B*44:03 (setting [11]) it was 6.69; with HLA-B*40:01 [1] (setting [11]), 5.82; with HLA-B*40:02 (setting [11]) it was 7.28; with HLA-B*44:02 (setting [11]), 6.49; with HLA-B*45:01 (setting [11]), 7.97.
On to IVIAPAMGM, for which the pKd in the assay with HLA-A*26:01 [4] was no more than 4.70.
For KEINFLSQT, the pKd is no more than 4.55 with HLA-B*18:01 (setting [5]); 4.76 with HLA-B*44:03 (setting [5]); no more than 4.20 in the assay with HLA-B*40:01 [1] (setting [5]); 7.82 with HLA-B*40:02 (setting [5]); 4.79 with HLA-B*44:02 (setting [5]); 6.19 with HLA-B*45:01 (setting [5]).
